Measurements: publication PMC5636944

Target: K63 diubiquitin (K63 diUb)
Test: SPR, p62 immobilised on CM5 chip

**Q.** How did the KD (reference: recombinant p62 WT, unphosphorylated, sites S403,S407) turn out when “p62/SQSTM1 (sequestosome-1) 320-436 (from UniProt Q13501) semisynthetic p62 2Pi (pS403/pS407)” was run?
**A.** stronger; reference 167.9 ± 13.0 μM

**Q.** Which results are given for “p62/SQSTM1 (sequestosome-1) 320-436 (from UniProt Q13501) p62 2Pi (pS403/pS407)”?
**A.** KD (reference: p62S403Pi (monophosphorylated), sites S407): stronger; reference 4.4 ± 0.4 μM; KD (reference: p62S407Pi (monophosphorylated), sites S403): stronger; reference 14.8 ± 1.0 μM
